The values below are quoted from earlier work in PMC5257200.

The pKa is the negative logarithm of the acid dissociation constant.

In this series the target is His19 (UniProt position 19, ILSALHFMAWT). The note with it: Membrane-bound peptide.

Turning to “Influenza B virus M2 protein peptide BM2(3–33) (Influenza B virus (strain not stated for this construct))”, the pKa is roughly 6.5.
